According to US20220332804A1 (CSL INNOVATION, published 2022):
Positions count from the first letter of the chain named.

T1: human complement C2 (human, UniProt P06681 21-752)
T1 construct: Recombinant full-length human C2 with C-terminal 8x His tag, purified from Expi293F supernatant; also called human C2; huC2
T1 sequence: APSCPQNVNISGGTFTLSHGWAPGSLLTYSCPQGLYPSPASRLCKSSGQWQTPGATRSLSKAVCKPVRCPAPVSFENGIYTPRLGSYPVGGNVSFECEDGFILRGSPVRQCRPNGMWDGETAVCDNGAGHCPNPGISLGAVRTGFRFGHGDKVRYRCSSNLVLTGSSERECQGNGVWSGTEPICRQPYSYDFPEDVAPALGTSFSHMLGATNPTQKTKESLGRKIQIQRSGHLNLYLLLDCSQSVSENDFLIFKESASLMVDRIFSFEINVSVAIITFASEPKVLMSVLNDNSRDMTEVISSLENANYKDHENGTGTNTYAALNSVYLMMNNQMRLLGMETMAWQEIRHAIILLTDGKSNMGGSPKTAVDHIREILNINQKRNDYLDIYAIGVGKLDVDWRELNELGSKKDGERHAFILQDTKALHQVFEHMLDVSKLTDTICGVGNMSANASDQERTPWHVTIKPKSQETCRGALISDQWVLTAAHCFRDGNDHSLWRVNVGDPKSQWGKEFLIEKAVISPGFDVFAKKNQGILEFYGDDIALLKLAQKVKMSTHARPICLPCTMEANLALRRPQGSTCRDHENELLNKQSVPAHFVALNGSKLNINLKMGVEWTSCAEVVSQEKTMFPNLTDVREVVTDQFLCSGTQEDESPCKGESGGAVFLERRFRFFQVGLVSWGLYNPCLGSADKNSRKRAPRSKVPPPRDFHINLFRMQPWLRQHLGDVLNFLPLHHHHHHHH

B1: RF16-226 YEY (antibody, human IgG4 S228P, lambda)
heavy: EVQLVQSGAEVKKPGESLKISCKGSGYSFTSYWIGWVRQMPGKGLEWMGIIYPGDSDTRYSPSFQGQVTISADKSISTAYLQWSSLKASDTAMYYCARRFSYSSGWDMWGQGTLVTVSSASTKGPSVFPLAPCSRSTSESTAALGCLVKDYFPEPVTVSWNSGALTSGVHTFPAVLQSSGLYSLSSVVTVPSSSLGTKTYTCNVDHKPSNTKVDKRVESKYGPPCPPCPAPEFLGGPSVFLFPPKPKDTLYISRTPEVTCVVVDVSQEDPEVQFNWYVDGVEVHEAKTKPREEQFNSTYRVVSVLTVLHQDWLNGKEYKCKVSNKGLPSSIEKTISKAKGQPREPQVYTLPPSQEEMTKNQVSLTCLVKGFYPSDIAVEWESNGQPENNYKTTPPVLDSDGSFFLYSRLTVDKSRWQEGNVFSCSVMHEALHYHYTQKSLSLSLGK
light: SYELTQPPSVSVSPGQTARITCSGDALTSKYVAWYQQKSGLAPLLVIYEDTRRPSGIPAKFSGSSSGSVATLTISGAHGDDEADYYCYSTDASGHQRVFGGGTKLTVLSQPKAAPSVTLFPPSSEELQANKATLVCLISDFYPGAVTVAWKADGSPVKAGVETTKPSKQSNNKYAASSYLSLTPEQWKSHRSYSCQVTHEGSTVEKTVAPTECS
B2: RF16-226 YPY (antibody, human IgG4 S228P, lambda)
heavy: B1 heavy with E285N, V307P
light: B1 light
B3: RF16-226 YTE (antibody, human IgG4 S228P, lambda)
heavy: B1 heavy with S253T, T255E, E285N, Y433N
light: B1 light

molecular target: T1, human complement C2; test: SPR, mAb captured, huC2 analyte, pH 6

| Kd [nM] | Binder |
| --- | --- |
| ~80 | B1 |
| ~80 | B2 |
| ~80 | B3 |

molecular target: T1, human complement C2; test: SPR, mAb captured, huC2 analyte, neutral pH; pH 7

| Kd [nM] | Binder |
| --- | --- |
| ~9 | B1 |
| ~9 | B2 |
| ~9 | B3 |
